Test results published in the supplement of paper PMC10567573.

B1: ETS1 (parent)
chain: YVRDRADLNKDKPVIPAAALAGYT

Variants of: B1
Assay: protein stability index of a GFP-peptide fusion (GPS, HEK-293T) (PSI 1-6); higher = more stable
Details: c terminus: a fixed tail appended
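Further: lentivirally expressed fusions sorted by FACS into six bins by GFP to DsRed ratio, PSI derived from sequencing read proportions per bin multiplied by bin number.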

Q: With YVRDRADLNKDKQVIPAAALAGYT [P13Q] as the variant, how does the protein stability index read?
A: Its protein stability index is 1.63.

Q: Which protein stability index does the source give for YVRDRADLNKDKKVIPAAALAGYT [P13K] here?
A: The protein stability index was 2.4.

Q: For YVRDRADLNKDKLVIPAAALAGYT [P13L], which protein stability index is on record?
A: The protein stability index was 2.82.

Q: For YVRDRADLNKDKNVIPAAALAGYT [P13N], which protein stability index is on record?
A: The protein stability index was 2.46.

Q: Which protein stability index does the source give for YVRDRADLNKDKRVIPAAALAGYT [P13R] here?
A: The protein stability index was 3.04.

Q: Which protein stability index does the source give for YVRDRADLNKDKWVIPAAALAGYT [P13W] here?
A: The protein stability index was 2.13.

Q: With YVRDRADLNKDKTVIPAAALAGYT [P13T] as the variant, how does the protein stability index read?
A: The protein stability index was 2.4.

Q: Which protein stability index does the source give for YVRDRADLNKDKHVIPAAALAGYT [P13H] here?
A: Its protein stability index is 2.36.

Q: For YVRDRADLNKDKSVIPAAALAGYT [P13S], which protein stability index is on record?
A: Its protein stability index is 1.62.

Q: Which protein stability index does the source give for YVRDRADLNKDKIVIPAAALAGYT [P13I] here?
A: Its protein stability index is 1.88.

Q: With YVRDRADLNKDKFVIPAAALAGYT [P13F] as the variant, how does the protein stability index read?
A: Its protein stability index is 2.85.

Q: Which protein stability index does the source give for YVRDRADLNKDKDVIPAAALAGYT [P13D] here?
A: The protein stability index was 1.63.

Q: Which protein stability index does the source give for YVRDRADLNKDKGVIPAAALAGYT [P13G] here?
A: The protein stability index was 2.23.

Q: Which protein stability index does the source give for YVRDRADLNKDKVVIPAAALAGYT [P13V] here?
A: Its protein stability index is 2.77.

Q: For YVRDRADLNKDKEVIPAAALAGYT [P13E], which protein stability index is on record?
A: Its protein stability index is 1.74.

Q: With YVRDRADLNKDKAVIPAAALAGYT [P13A] as the variant, how does the protein stability index read?
A: The protein stability index was 1.53.

Q: With YVRDRADLNKDKYVIPAAALAGYT [P13Y] as the variant, how does the protein stability index read?
A: The protein stability index was 2.59.

Q: For YVRDRADLNKDKMVIPAAALAGYT [P13M], which protein stability index is on record?
A: Its protein stability index is 1.95.

Q: For YVRDRADLNKDKCVIPAAALAGYT [P13C], which protein stability index is on record?
A: The protein stability index was 1.8.

Q: With YVRDRADLNKDWPVIPAAALAGYT [K12W] as the variant, how does the protein stability index read?
A: Its protein stability index is 2.43.

Q: Which protein stability index does the source give for YVRDRADLNKDCPVIPAAALAGYT [K12C] here?
A: Its protein stability index is 2.13.

Q: Which protein stability index does the source give for YVRDRADLNKDLPVIPAAALAGYT [K12L] here?
A: Its protein stability index is 2.47.

Q: For YVRDRADLNKDTPVIPAAALAGYT [K12T], which protein stability index is on record?
A: Its protein stability index is 2.02.

Q: Which protein stability index does the source give for YVRDRADLNKDVPVIPAAALAGYT [K12V] here?
A: Its protein stability index is 2.47.

Q: For YVRDRADLNKDRPVIPAAALAGYT [K12R], which protein stability index is on record?
A: The protein stability index was 2.08.

Q: With YVRDRADLNKDPPVIPAAALAGYT [K12P] as the variant, how does the protein stability index read?
A: The protein stability index was 1.95.

Q: Which protein stability index does the source give for YVRDRADLNKDNPVIPAAALAGYT [K12N] here?
A: Its protein stability index is 2.29.

Q: For YVRDRADLNKDDPVIPAAALAGYT [K12D], which protein stability index is on record?
A: Its protein stability index is 2.04.

Q: For YVRDRADLNKDFPVIPAAALAGYT [K12F], which protein stability index is on record?
A: The protein stability index was 2.1.

Q: With YVRDRADLNKDGPVIPAAALAGYT [K12G] as the variant, how does the protein stability index read?
A: The protein stability index was 2.17.

Q: For YVRDRADLNKDHPVIPAAALAGYT [K12H], which protein stability index is on record?
A: Its protein stability index is 2.29.

Q: With YVRDRADLNKDQPVIPAAALAGYT [K12Q] as the variant, how does the protein stability index read?
A: The protein stability index was 2.48.

Q: With YVRDRADLNKDIPVIPAAALAGYT [K12I] as the variant, how does the protein stability index read?
A: The protein stability index was 2.19.

Q: With YVRDRADLNKDAPVIPAAALAGYT [K12A] as the variant, how does the protein stability index read?
A: Its protein stability index is 2.39.

Q: Which protein stability index does the source give for YVRDRADLNKDYPVIPAAALAGYT [K12Y] here?
A: Its protein stability index is 1.94.

Q: With YVRDRADLNKDEPVIPAAALAGYT [K12E] as the variant, how does the protein stability index read?
A: The protein stability index was 1.79.

Q: For YVRDRADLNKDSPVIPAAALAGYT [K12S], which protein stability index is on record?
A: Its protein stability index is 2.48.

Q: With YVRDRADLNKDMPVIPAAALAGYT [K12M] as the variant, how does the protein stability index read?
A: Its protein stability index is 1.9.

Q: Which protein stability index does the source give for YVRDRADLNKDKPVCPAAALAGYT [I15C] here?
A: The protein stability index was 2.84.

Q: For YVRDRADLNKDKPVDPAAALAGYT [I15D], which protein stability index is on record?
A: The protein stability index was 1.93.

Q: With YVRDRADLNKDKPVLPAAALAGYT [I15L] as the variant, how does the protein stability index read?
A: The protein stability index was 2.16.

Q: Which protein stability index does the source give for YVRDRADLNKDKPVSPAAALAGYT [I15S] here?
A: Its protein stability index is 2.36.

Q: For YVRDRADLNKDKPVAPAAALAGYT [I15A], which protein stability index is on record?
A: Its protein stability index is 2.8.

Q: For YVRDRADLNKDKPVKPAAALAGYT [I15K], which protein stability index is on record?
A: Its protein stability index is 2.26.

Q: For YVRDRADLNKDKPVTPAAALAGYT [I15T], which protein stability index is on record?
A: Its protein stability index is 1.91.

Q: For YVRDRADLNKDKPVWPAAALAGYT [I15W], which protein stability index is on record?
A: The protein stability index was 2.77.

Q: Which protein stability index does the source give for YVRDRADLNKDKPVPPAAALAGYT [I15P] here?
A: The protein stability index was 2.63.

Q: For YVRDRADLNKDKPVQPAAALAGYT [I15Q], which protein stability index is on record?
A: The protein stability index was 2.57.

Q: With YVRDRADLNKDKPVMPAAALAGYT [I15M] as the variant, how does the protein stability index read?
A: The protein stability index was 2.7.

Q: For YVRDRADLNKDKPVGPAAALAGYT [I15G], which protein stability index is on record?
A: The protein stability index was 2.09.

Q: Which protein stability index does the source give for YVRDRADLNKDKPVRPAAALAGYT [I15R] here?
A: Its protein stability index is 1.86.

Q: With YVRDRADLNKDKPVEPAAALAGYT [I15E] as the variant, how does the protein stability index read?
A: The protein stability index was 1.77.

Q: Which protein stability index does the source give for YVRDRADLNKDKPVHPAAALAGYT [I15H] here?
A: The protein stability index was 2.29.

Q: Which protein stability index does the source give for YVRDRADLNKDKPVVPAAALAGYT [I15V] here?
A: The protein stability index was 1.56.

Q: With YVRDRADLNKDKPVYPAAALAGYT [I15Y] as the variant, how does the protein stability index read?
A: Its protein stability index is 1.95.

Q: With YVRDRADLNKDKPVNPAAALAGYT [I15N] as the variant, how does the protein stability index read?
A: Its protein stability index is 3.26.

Q: With YVRDRADLNKDKPVFPAAALAGYT [I15F] as the variant, how does the protein stability index read?
A: The protein stability index was 1.8.

Q: Which protein stability index does the source give for YVRDRADLNVDKPVIPAAALAGYT [K10V] here?
A: Its protein stability index is 1.55.

Q: With YVRDRADLNQDKPVIPAAALAGYT [K10Q] as the variant, how does the protein stability index read?
A: Its protein stability index is 2.55.

Q: For YVRDRADLNWDKPVIPAAALAGYT [K10W], which protein stability index is on record?
A: Its protein stability index is 2.19.

Q: With YVRDRADLNRDKPVIPAAALAGYT [K10R] as the variant, how does the protein stability index read?
A: The protein stability index was 2.24.

Q: For YVRDRADLNYDKPVIPAAALAGYT [K10Y], which protein stability index is on record?
A: The protein stability index was 1.97.

Q: Which protein stability index does the source give for YVRDRADLNIDKPVIPAAALAGYT [K10I] here?
A: The protein stability index was 2.23.

Q: Which protein stability index does the source give for YVRDRADLNHDKPVIPAAALAGYT [K10H] here?
A: The protein stability index was 2.18.

Q: With YVRDRADLNNDKPVIPAAALAGYT [K10N] as the variant, how does the protein stability index read?
A: The protein stability index was 2.08.

Q: Which protein stability index does the source give for YVRDRADLNLDKPVIPAAALAGYT [K10L] here?
A: Its protein stability index is 2.62.

Q: Which protein stability index does the source give for YVRDRADLNADKPVIPAAALAGYT [K10A] here?
A: Its protein stability index is 2.58.

Q: For YVRDRADLNSDKPVIPAAALAGYT [K10S], which protein stability index is on record?
A: The protein stability index was 1.59.

Q: With YVRDRADLNEDKPVIPAAALAGYT [K10E] as the variant, how does the protein stability index read?
A: Its protein stability index is 1.88.

Q: For YVRDRADLNTDKPVIPAAALAGYT [K10T], which protein stability index is on record?
A: The protein stability index was 2.67.

Q: For YVRDRADLNDDKPVIPAAALAGYT [K10D], which protein stability index is on record?
A: Its protein stability index is 2.58.

Q: With YVRDRADLNPDKPVIPAAALAGYT [K10P] as the variant, how does the protein stability index read?
A: Its protein stability index is 2.6.

Q: Which protein stability index does the source give for YVRDRADLNCDKPVIPAAALAGYT [K10C] here?
A: The protein stability index was 2.75.

Q: With YVRDRADLNGDKPVIPAAALAGYT [K10G] as the variant, how does the protein stability index read?
A: The protein stability index was 2.97.

Q: Which protein stability index does the source give for YVRDRADLNMDKPVIPAAALAGYT [K10M] here?
A: Its protein stability index is 2.32.

Q: Which protein stability index does the source give for YVRDRADLNFDKPVIPAAALAGYT [K10F] here?
A: The protein stability index was 3.25.

Q: For YVRDRADLKKDKPVIPAAALAGYT [N9K], which protein stability index is on record?
A: Its protein stability index is 2.31.

Q: For YVRDRADLYKDKPVIPAAALAGYT [N9Y], which protein stability index is on record?
A: Its protein stability index is 2.84.

Q: With YVRDRADLQKDKPVIPAAALAGYT [N9Q] as the variant, how does the protein stability index read?
A: The protein stability index was 1.66.

Q: With YVRDRADLCKDKPVIPAAALAGYT [N9C] as the variant, how does the protein stability index read?
A: Its protein stability index is 2.48.

Q: Which protein stability index does the source give for YVRDRADLMKDKPVIPAAALAGYT [N9M] here?
A: The protein stability index was 1.96.

Q: With YVRDRADLFKDKPVIPAAALAGYT [N9F] as the variant, how does the protein stability index read?
A: Its protein stability index is 2.21.

Q: With YVRDRADLPKDKPVIPAAALAGYT [N9P] as the variant, how does the protein stability index read?
A: The protein stability index was 2.29.

Q: For YVRDRADLGKDKPVIPAAALAGYT [N9G], which protein stability index is on record?
A: Its protein stability index is 2.29.

Q: Which protein stability index does the source give for YVRDRADLEKDKPVIPAAALAGYT [N9E] here?
A: The protein stability index was 1.98.

Q: For YVRDRADLSKDKPVIPAAALAGYT [N9S], which protein stability index is on record?
A: Its protein stability index is 1.77.

Q: For YVRDRADLIKDKPVIPAAALAGYT [N9I], which protein stability index is on record?
A: Its protein stability index is 2.58.

Q: With YVRDRADLVKDKPVIPAAALAGYT [N9V] as the variant, how does the protein stability index read?
A: The protein stability index was 2.57.

Q: For YVRDRADLWKDKPVIPAAALAGYT [N9W], which protein stability index is on record?
A: Its protein stability index is 3.77.

Q: For YVRDRADLDKDKPVIPAAALAGYT [N9D], which protein stability index is on record?
A: Its protein stability index is 1.59.

Q: With YVRDRADLTKDKPVIPAAALAGYT [N9T] as the variant, how does the protein stability index read?
A: Its protein stability index is 2.75.

Q: With YVRDRADLRKDKPVIPAAALAGYT [N9R] as the variant, how does the protein stability index read?
A: The protein stability index was 3.34.

Q: With YVRDRADLHKDKPVIPAAALAGYT [N9H] as the variant, how does the protein stability index read?
A: Its protein stability index is 3.44.

Q: For YVRDRADLAKDKPVIPAAALAGYT [N9A], which protein stability index is on record?
A: The protein stability index was 2.17.
